This is an account of results in article PMC13233820 (2026).

Experiment [1] deals with T1, yeast Smt3 (Smt3-6xHis) (S. cerevisiae, UniProt Q12306 1-101 = SUMO, U-[13C,15N] labelled in the NMR experiments).
T1 chain: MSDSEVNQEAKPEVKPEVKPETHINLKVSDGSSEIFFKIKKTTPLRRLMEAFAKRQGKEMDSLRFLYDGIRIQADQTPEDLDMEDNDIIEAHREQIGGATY
Put plainly: ITC; Smt3 300 uM. On the technique in general: Isothermal titration calorimetry measures the heat released or taken up as one component is titrated into another.

Experiment [2] has as its target T1, yeast Smt3 (Smt3-6xHis). Put plainly: ITC; Smt3 150 uM.

On to ENDIIMVSTDE [synthetic Mre11-SIM3 peptide, wild type], for which the Kd (usually the equilibrium constant for the complex coming apart) with yeast Smt3 (Smt3-6xHis) [1] was 15.3 µM; in the experiment with yeast Smt3 (Smt3-6xHis) [2], 30.2 µM.
